Our source for the IC50 values is patent US20240279324A1.

As a reminder, the IC50 is the concentration that inhibits the measured activity by half. Read a high IC50 as weaker potency.

For the assay, the target named is VEGF (human) (UniProt P15692). Nature of the assay: VEGF blocking assay (luminescence).
VEGF (human), sequence (P15692 other isoform, or with tags, fused parts or gaps): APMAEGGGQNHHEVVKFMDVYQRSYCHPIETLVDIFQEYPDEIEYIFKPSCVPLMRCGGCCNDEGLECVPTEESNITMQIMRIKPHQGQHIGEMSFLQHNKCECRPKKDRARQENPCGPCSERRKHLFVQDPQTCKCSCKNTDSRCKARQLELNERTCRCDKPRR

As for Avastin, the IC50 was 0.107 nM.
